Data reported in the RNAGym collection of RNA variant scans (doi:10.1093/molbev/msab373).

B1: Azoarcus group I ribozyme (parent)
chain: GUGCCUUGCGCCGGGAAACCACGCAAGGGAUGGUGUCAAAUUCGGCGAAACCUAAGCGCCCGCCCGGGCGUAUGGCAACGCCGAGCCAAGCUUCGGCGCCUGCGCCGAUGAAGGUGUAGAGACUAGACGGCACCCACCUAAGGCAAACGCUAUGGUGAAGGCAUAGUCCAGGGAGUGGCGAAAGUCACACAAACCGG

Variants of: B1
Experiment: reverse-splicing fitness (ratio to wild type); higher = more active; in vitro selection; Mg2+ level not given
Summary of the method: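 An in vitro group I ribozyme library with randomized positions was T7-transcribed and gel-purified. In triplicate, 10 pmol RNA in EPPS pH 7.5 was reacted with 50 pmoles of a 30-nt RNA substrate for 1 h at 37 °C across several added MgCl2 levels (1–48 mM), then stopped with EDTA. Products were reverse transcribed from a substrate-complementary primer, PCR-amplified and sequenced (HiSeq 4000). Fitness is a variant's read proportion after selection over that before, normalised to wild type.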

Variant	reverse-splicing fitness
C82A A111C A120U A145U C150U C169A U176A	0.00334
C82A A111C A120U A145U C150U C169A U176G	0.00295
C82A A111C A120U A145U C150U C169A U176C	0.00305
C82A A111C A120U A145C C150A U176C	0.00528
C82A A111C A120U A145C C150A U176A	0.00393
C82A A111C A120U A145C C150A U176G	0.00289
C82A A111C A120G A145U C150G C169G U176G	0.00527
C82A A111C A120G A145U C150G C169G U176C	0.00484
C82A A111C A120G A145U C150G C169G U176A	0.00626
C82A A111C A120U A145G C150G C169G U176A	0.0101
C82A A111C A120U A145G C150G C169G U176C	0.00768
C82A A111C A120U A145G C150G C169G U176G	0.00456
C82A A111C A120G C150U C169G	0.00891
C82A A111C A120G C150U C169U	0.00806
C82A A111C A120G C150U C169A	0.00973
C82A A111C A120G C150G C169A U176A	0.0102
C82A A111C A120G C150G C169A U176C	0.00996
C82A A111C A120G C150G C169A U176G	0.00659
C82A A111C A120U A145G C169U U176A	0.00527
C82A A111C A120U A145G C169U U176C	0.00417
C82A A111C A120U A145G C169U U176G	0.00234

Variant	reverse-splicing fitness
C82A A111C A120G U176G	0.00584
C82A A111C A120G U176C	0.0255
C82A A111C A120G U176A	0.0144
C82A A111C A120G C150G C169U U176G	0.00579
C82A A111C A120G C150G C169U U176A	0.00801
C82A A111C A120G C150G C169U U176C	0.012
C82A A111C A120U A145G C150U C169U U176A	0.00523
C82A A111C A120U A145G C150U C169U U176G	0.00315
C82A A111C A120U A145G C150U C169U U176C	0.00469
C82A A111C A120G A145G C150G C169U U176C	0.0123
C82A A111C A120G A145G C150G C169U U176G	0.00784
C82A A111C A120G A145G C150G C169U U176A	0.0114
C82A A111C A120G A145U C150A U176G	0.00589
C82A A111C A120G A145U C150A U176C	0.02
C82A A111C A120G A145U C150A U176A	0.0139
C82A A111C A120U A145C C150G C169A U176G	0.00275
C82A A111C A120U A145C C150G C169A U176A	0.00353
C82A A111C A120U A145C C150G C169A U176C	0.00263
C82A A111C A120U A145U C150G C169A U176A	0.00379
C82A A111C A120U A145U C150G C169A U176G	0.00338
C82A A111C A120U A145U C150G C169A U176C	0.00377

Variant	reverse-splicing fitness
C82A A111C A120G A145U C150G C169A U176G	0.00558
C82A A111C A120G A145U C150G C169A U176C	0.00969
C82A A111C A120G A145U C150G C169A U176A	0.00941
C82A A111C A120G C150A C169G U176A	0.0187
C82A A111C A120G C150A C169G U176C	0.0234
C82A A111C A120G C150A C169G U176G	0.00735
C82A A111C A120U A145U C150G	0.00626
C82A A111C A120U A145U C150A	0.00598
C82A A111C A120U A145U C150U	0.0169
C82A A111C A120G A145U C169U	0.00891
C82A A111C A120G A145U C169G	0.00868
C82A A111C A120G A145U C169A	0.00893
C82A A111C A120U A145G C169A	0.00372
C82A A111C A120U A145G C169U	0.00493
C82A A111C A120U A145G C169G	0.00415
C82A A111C A120G C150U U176G	0.00673
C82A A111C A120G C150U U176C	0.02
C82A A111C A120G C150U U176A	0.0116
C82A A111C A120G A145U C150G U176C	0.0147
C82A A111C A120G A145U C150G U176G	0.0034
C82A A111C A120G A145U C150G U176A	0.0064

Variant	reverse-splicing fitness
C82A A111C A120U A145G C169A U176A	0.00438
C82A A111C A120U A145G C169A U176G	0.00219
C82A A111C A120U A145G C169A U176C	0.00466
C82A A111C A120U A145G C150U	0.0191
C82A A111C A120U A145G C150G	0.00762
C82A A111C A120U A145G C150A	0.00897
C82A A111C A120G A145U C150A C169U	0.00736
C82A A111C A120G A145U C150A C169G	0.00777
C82A A111C A120G A145U C150A C169A	0.00893
C82A A111C A120G A145U C150U C169G U176G	0.00522
C82A A111C A120G A145U C150U C169G U176A	0.012
C82A A111C A120G A145U C150U C169G U176C	0.014
C82A A111C A120U A145C C150U C169G U176A	0.00406
C82A A111C A120U A145C C150U C169G U176G	0.00286
C82A A111C A120U A145C C150U C169G U176C	0.00264
C82A A111C A120U A145G C150G C169U U176C	0.00842
C82A A111C A120U A145G C150G C169U U176A	0.00855
C82A A111C A120U A145G C150G C169U U176G	0.00484
C82A A111C A120U A145C C150G C169G U176A	0.00291
C82A A111C A120U A145C C150G C169G U176G	0.00318
C82A A111C A120U A145C C150G C169G U176C	0.00325
